For one substance, binding signal (% DNA pulled down) results are on record in patent US9677128.

For this data set, the target named is T1, J-binding protein 1 (JBP1) (Crithidia fasciculata) (UniProt Q9U6M2).
T1 sequence: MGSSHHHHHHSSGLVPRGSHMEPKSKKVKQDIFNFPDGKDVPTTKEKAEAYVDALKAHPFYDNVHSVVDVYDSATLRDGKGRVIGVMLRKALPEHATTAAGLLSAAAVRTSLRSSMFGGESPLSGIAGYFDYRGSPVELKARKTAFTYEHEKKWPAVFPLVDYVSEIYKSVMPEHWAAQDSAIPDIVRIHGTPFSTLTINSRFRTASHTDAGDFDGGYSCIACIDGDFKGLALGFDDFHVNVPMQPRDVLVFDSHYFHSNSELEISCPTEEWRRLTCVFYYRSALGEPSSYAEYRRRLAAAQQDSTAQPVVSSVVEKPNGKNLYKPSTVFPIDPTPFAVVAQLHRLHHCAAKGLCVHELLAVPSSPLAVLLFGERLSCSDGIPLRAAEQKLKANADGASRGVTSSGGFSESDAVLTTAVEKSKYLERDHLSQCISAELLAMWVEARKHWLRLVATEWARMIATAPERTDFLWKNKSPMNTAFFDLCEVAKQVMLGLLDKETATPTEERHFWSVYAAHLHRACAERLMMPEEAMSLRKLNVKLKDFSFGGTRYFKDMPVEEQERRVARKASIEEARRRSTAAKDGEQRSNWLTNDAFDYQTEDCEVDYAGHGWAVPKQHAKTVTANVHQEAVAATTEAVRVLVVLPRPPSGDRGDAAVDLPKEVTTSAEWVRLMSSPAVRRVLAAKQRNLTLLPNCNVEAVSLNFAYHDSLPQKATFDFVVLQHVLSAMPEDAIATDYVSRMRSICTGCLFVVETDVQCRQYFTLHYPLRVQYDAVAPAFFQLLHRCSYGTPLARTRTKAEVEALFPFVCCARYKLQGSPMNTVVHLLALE
Kind of data set: pulldown. To be noted: beta-glucosyl-5hmC in place of all C (outside primers); 132 ng JBP1 beads, 10 ng DNA, 150 mM NaCl, 10 mM Tris pH 8.0, 2 mM EDTA, room temperature.

On to pUC18 2.7 kb PCR product, beta-glu-5hmC, for which the binding signal (% DNA pulled down) is below 6.
